Experimental data published in patent US20110118131A1 (published 2011).
Where a chain is given by its changes, count along the chain named. Numbers in names are those of the source.

Target: T1, IL-1β (UniProt P01584 117-269)
T1 construct: Antigen immobilised on the Biacore chip
Experiment: Biacore, periplasmic extract

B1: XPA23 light chain A51G (Fab, V domains shown)
VH: EVQLLESGGGLVQPGGSLRLSCAASGFTFSKYFMFWVRQAPGKGLEWVSVISPSGGMTRYADSVKGRFTISRDNSKNTLYLQMNSLRAEDTAVYYCARVGYGGNSDYWGQGTLVTVSS
VL: DIQMTQSPSSVSASVGDRLTIICRASQDINRWLAWYQQTPGNAPKLLIHSGTSLQSGVPSRFSGSGSGTDFTLTINSLQPEDFATYYCQQADSFPLTFGGGTKVEIK
  fold difference in affinity vs original: 3.84 fold

B2: XPA23 light chain A51Q (Fab, V domains shown)
VH: B1 VH
VL: B1 VL with G51Q
  fold difference in affinity vs original: 0.24 fold

B3: XPA23 light chain D28I (Fab, V domains shown)
VH: B1 VH
VL: B1 VL with D28I, G51A
  binding result: no binding

B4: XPA23 light chain A91S (Fab, V domains shown)
VH: B1 VH
VL: B1 VL with G51A, A91S
  fold difference in affinity vs original: 0.9 fold

B5: XPA23 light chain A51N (Fab, V domains shown)
VH: B1 VH
VL: B1 VL with G51N
  fold difference in affinity vs original: 0.3 fold

B6: XPA23 light chain D28W (Fab, V domains shown)
VH: B1 VH
VL: B1 VL with D28W, G51A
  fold difference in affinity vs original: 3.81 fold

B7: XPA23 light chain D28P (Fab, V domains shown)
VH: B1 VH
VL: B1 VL with D28P, G51A
  fold difference in affinity vs original: 1.17 fold

B8: XPA23 light chain A91W (Fab, V domains shown)
VH: B1 VH
VL: B1 VL with G51A, A91W
  binding result: no binding

B9: XPA23 light chain D28H (Fab, V domains shown)
VH: B1 VH
VL: B1 VL with D28H, G51A
  fold difference in affinity vs original: 1.23 fold

B10: XPA23 light chain D28Y (Fab, V domains shown)
VH: B1 VH
VL: B1 VL with D28Y, G51A
  fold difference in affinity vs original: 1.45 fold

B11: XPA23 light chain A91D (Fab, V domains shown)
VH: B1 VH
VL: B1 VL with G51A, A91D
  fold difference in affinity vs original: 1.08 fold

B12: XPA23 light chain A91Q (Fab, V domains shown)
VH: B1 VH
VL: B1 VL with G51A, A91Q
  binding result: no binding

B13: XPA23 light chain D28K (Fab, V domains shown)
VH: B1 VH
VL: B1 VL with D28K, G51A
  fold difference in affinity vs original: 0.82 fold

B14: XPA23 light chain A51V (Fab, V domains shown)
VH: B1 VH
VL: B1 VL with G51V
  fold difference in affinity vs original: 0.31 fold

B15: XPA23 light chain D92H (Fab, V domains shown)
VH: B1 VH
VL: B1 VL with G51A, D92H
  fold difference in affinity vs original: 0.63 fold

B16: XPA23 light chain A51P (Fab, V domains shown)
VH: B1 VH
VL: B1 VL with G51P
  fold difference in affinity vs original: 0.13 fold

B17: XPA23 light chain D92E (Fab, V domains shown)
VH: B1 VH
VL: B1 VL with G51A, D92E
  fold difference in affinity vs original: 0.99 fold

B18: XPA23 light chain A91N (Fab, V domains shown)
VH: B1 VH
VL: B1 VL with G51A, A91N
  fold difference in affinity vs original: 0.1 fold

B19: XPA23 light chain D28A (Fab, V domains shown)
VH: B1 VH
VL: B1 VL with D28A, G51A
  fold difference in affinity vs original: 0.88 fold

B20: XPA23 light chain D28E (Fab, V domains shown)
VH: B1 VH
VL: B1 VL with D28E, G51A
  fold difference in affinity vs original: 0.74 fold

B21: XPA23 light chain A91E (Fab, V domains shown)
VH: B1 VH
VL: B1 VL with G51A, A91E
  fold difference in affinity vs original: 0.1 fold

B22: XPA23 light chain D28L (Fab, V domains shown)
VH: B1 VH
VL: B1 VL with D28L, G51A
  fold difference in affinity vs original: 9.64 fold

B23: XPA23 light chain A91F (Fab, V domains shown)
VH: B1 VH
VL: B1 VL with G51A, A91F
  binding result: no binding

B24: XPA23 light chain D92K (Fab, V domains shown)
VH: B1 VH
VL: B1 VL with G51A, D92K
  fold difference in affinity vs original: 0.23 fold

B25: XPA23 light chain D28T (Fab, V domains shown)
VH: B1 VH
VL: B1 VL with D28T, G51A
  fold difference in affinity vs original: 1.19 fold

B26: XPA23 light chain A51L (Fab, V domains shown)
VH: B1 VH
VL: B1 VL with G51L
  fold difference in affinity vs original: 0.16 fold

B27: XPA23 light chain A91Y (Fab, V domains shown)
VH: B1 VH
VL: B1 VL with G51A, A91Y
  binding result: no binding

B28: XPA23 light chain A91H (Fab, V domains shown)
VH: B1 VH
VL: B1 VL with G51A, A91H
  fold difference in affinity vs original: 1.12 fold

B29: XPA23 light chain D92Q (Fab, V domains shown)
VH: B1 VH
VL: B1 VL with G51A, D92Q
  fold difference in affinity vs original: 0.56 fold

B30: XPA23 light chain D28S (Fab, V domains shown)
VH: B1 VH
VL: B1 VL with D28S, G51A
  fold difference in affinity vs original: 5.25 fold

B31: XPA23 light chain D28N (Fab, V domains shown)
VH: B1 VH
VL: B1 VL with D28N, G51A
  fold difference in affinity vs original: 1 fold

B32: XPA23 light chain A51W (Fab, V domains shown)
VH: B1 VH
VL: B1 VL with G51W
  fold difference in affinity vs original: 0.24 fold

B33: XPA23 light chain A51Y (Fab, V domains shown)
VH: B1 VH
VL: B1 VL with G51Y
  fold difference in affinity vs original: 0.45 fold

B34: XPA23 light chain D92N (Fab, V domains shown)
VH: B1 VH
VL: B1 VL with G51A, D92N
  fold difference in affinity vs original: 0.67 fold

B35: XPA23 light chain D28F (Fab, V domains shown)
VH: B1 VH
VL: B1 VL with D28F, G51A
  fold difference in affinity vs original: 1.43 fold

B36: XPA23 light chain A51R (Fab, V domains shown)
VH: B1 VH
VL: B1 VL with G51R
  fold difference in affinity vs original: 0.18 fold

B37: XPA23 light chain D28V (Fab, V domains shown)
VH: B1 VH
VL: B1 VL with D28V, G51A
  fold difference in affinity vs original: 0.85 fold

B38: XPA23 light chain D92F (Fab, V domains shown)
VH: B1 VH
VL: B1 VL with G51A, D92F
  fold difference in affinity vs original: 0.26 fold

B39: XPA23 light chain D28R (Fab, V domains shown)
VH: B1 VH
VL: B1 VL with D28R, G51A
  fold difference in affinity vs original: 0.94 fold

B40: XPA23 light chain D28G (Fab, V domains shown)
VH: B1 VH
VL: B1 VL with D28G, G51A
  fold difference in affinity vs original: 1.21 fold

B41: XPA23 light chain A51I (Fab, V domains shown)
VH: B1 VH
VL: B1 VL with G51I
  binding result: no binding

B42: XPA23 light chain A91R (Fab, V domains shown)
VH: B1 VH
VL: B1 VL with G51A, A91R
  binding result: no binding

B43: XPA23 light chain A51T (Fab, V domains shown)
VH: B1 VH
VL: B1 VL with G51T
  fold difference in affinity vs original: 0.76 fold

B44: XPA23 light chain A51H (Fab, V domains shown)
VH: B1 VH
VL: B1 VL with G51H
  fold difference in affinity vs original: 0.61 fold

B45: XPA23 light chain A51S (Fab, V domains shown)
VH: B1 VH
VL: B1 VL with G51S
  fold difference in affinity vs original: 0.95 fold
